Results on one molecule are retold here after article PMC2947474 (Molecular Biology of the Cell, 2010).

One test concerns the target T1, V5-tagged Vps54 (human, UniProt Q9P1Q0 1-977).
T1 sequence: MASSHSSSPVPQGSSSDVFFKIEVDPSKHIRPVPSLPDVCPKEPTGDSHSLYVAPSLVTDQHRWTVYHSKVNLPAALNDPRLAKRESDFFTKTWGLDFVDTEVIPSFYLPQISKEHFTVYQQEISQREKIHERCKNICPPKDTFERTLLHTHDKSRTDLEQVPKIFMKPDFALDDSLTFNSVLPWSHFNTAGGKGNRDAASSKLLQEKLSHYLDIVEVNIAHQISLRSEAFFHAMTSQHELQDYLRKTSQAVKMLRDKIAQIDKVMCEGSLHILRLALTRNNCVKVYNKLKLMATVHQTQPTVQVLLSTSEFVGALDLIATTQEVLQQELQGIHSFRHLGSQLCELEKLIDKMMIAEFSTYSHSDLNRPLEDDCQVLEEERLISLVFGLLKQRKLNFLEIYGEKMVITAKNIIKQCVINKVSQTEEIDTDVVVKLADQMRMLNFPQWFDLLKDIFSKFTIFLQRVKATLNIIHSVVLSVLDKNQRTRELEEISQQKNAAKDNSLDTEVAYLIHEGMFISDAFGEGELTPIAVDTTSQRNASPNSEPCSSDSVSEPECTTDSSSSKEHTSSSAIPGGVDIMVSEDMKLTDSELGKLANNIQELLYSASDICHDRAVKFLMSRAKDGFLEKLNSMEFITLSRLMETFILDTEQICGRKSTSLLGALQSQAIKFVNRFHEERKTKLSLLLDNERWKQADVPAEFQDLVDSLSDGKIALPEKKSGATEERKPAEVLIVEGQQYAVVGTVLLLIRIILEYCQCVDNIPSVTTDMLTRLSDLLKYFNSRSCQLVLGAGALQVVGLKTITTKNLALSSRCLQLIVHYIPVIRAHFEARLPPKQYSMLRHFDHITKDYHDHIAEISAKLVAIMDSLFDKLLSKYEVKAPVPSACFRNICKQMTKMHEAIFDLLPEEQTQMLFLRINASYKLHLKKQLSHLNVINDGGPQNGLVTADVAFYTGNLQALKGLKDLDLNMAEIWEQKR
Nature of the test: sedimentation velocity on glycerol gradient + SEC.

A further test deals with T2, V5-tagged Vps53 (human, UniProt Q5VIR6 1-832).
T2 sequence: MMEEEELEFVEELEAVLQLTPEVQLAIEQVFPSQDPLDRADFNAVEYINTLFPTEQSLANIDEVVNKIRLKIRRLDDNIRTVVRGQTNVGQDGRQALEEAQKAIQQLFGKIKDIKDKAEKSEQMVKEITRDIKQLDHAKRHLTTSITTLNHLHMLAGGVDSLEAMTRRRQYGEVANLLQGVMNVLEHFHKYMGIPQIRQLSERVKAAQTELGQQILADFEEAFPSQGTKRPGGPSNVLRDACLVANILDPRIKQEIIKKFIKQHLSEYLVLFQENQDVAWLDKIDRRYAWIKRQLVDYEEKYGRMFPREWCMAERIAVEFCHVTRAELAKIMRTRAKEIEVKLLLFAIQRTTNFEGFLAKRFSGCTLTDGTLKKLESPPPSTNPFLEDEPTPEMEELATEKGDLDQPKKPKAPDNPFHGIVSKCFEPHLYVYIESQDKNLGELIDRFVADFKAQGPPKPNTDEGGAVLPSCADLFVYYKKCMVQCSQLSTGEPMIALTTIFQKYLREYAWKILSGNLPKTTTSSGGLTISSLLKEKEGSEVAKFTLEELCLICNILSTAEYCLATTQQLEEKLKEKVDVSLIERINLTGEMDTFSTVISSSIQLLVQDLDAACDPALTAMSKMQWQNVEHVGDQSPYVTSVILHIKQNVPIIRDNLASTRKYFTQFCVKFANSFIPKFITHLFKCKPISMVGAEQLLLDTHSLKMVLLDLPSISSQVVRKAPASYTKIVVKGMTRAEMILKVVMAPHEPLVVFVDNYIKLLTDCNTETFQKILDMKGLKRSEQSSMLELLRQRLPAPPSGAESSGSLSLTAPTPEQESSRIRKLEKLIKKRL
In words: sedimentation velocity on glycerol gradient + SEC.

B1: V5-tagged human Ang2 (natural protein)
chain: MAAAAAAGPSPGSGPGDSPEGPEGEAPERRRKAHGMLKLYYGLSEGEAAGRPAGPDPLDPTDLNGAHFDPEVYLDKLRRECPLAQLMDSETDMVRQIRALDSDMQTLVYENYNKFISATDTIRKMKNDFRKMEDEMDRLATNMAVITDFSARISATLQDRHERITKLAGVHALLRKLQFLFELPSRLTKCVELGAYGQAVRYQGRAQAVLQQYQHLPSFRAIQDDCQVITARLAQQLRQRFREGGSGAPEQAECVELLLALGEPAEELCEEFLAHARGRLEKELRNLEAELGPSPPAPDVLEFTDHGGSGFVGGLCQVAAAYQELFAAQGPAGAEKLAAFARQLGSRYFALVERRLAQEQGGGDNSLLVRALDRFHRRLRAPGALLAAAGLADAATEIVERVARERLGHHLQGLRAAFLGCLTDVRQALAAPRVAGKEGPGLAELLANVASSILSHIKASLAAVHLFTAKEVSFSNKPYFRGEFCSQGVREGLIVGFVHSMCQTAQSFCDSPGEKGGATPPALLLLLSRLCLDYETATISYILTLTDEQFLVQDQFPVTPVSTLCAEARETARRLLTHYVKVQGLVISQMLRKSVETRDWLSTLEPRNVRAVMKRVVEDTTAIDVQVGLLYEEGVRKAQSSDSSKRTFSVYSSSRQQGRYAPSYTPSAPMDTNLLSNIQKLFSERIDVFSPVEFNKVSVLTGIIKISLKTLLECVRLRTFGRFGLQQVQVDCHFLQLYLWRFVADEELVHLLLDEVVASAALRCPDPVPMEPSVVEVICERG
Regarding B1, the “stoichiometry N” value in the test with V5-tagged Vps54 and with V5-tagged Vps53 was 1 throughout.

The term stoichiometry N denotes the number of molecules, sites or subunits per partner or assembly.
